From publication PMC10570131, “TXNL1 has dual functions as a redox active thioredoxin-like protein as well as an ATP- and redox-independent chaperone” (Redox Biology, 2023)

B1: Thioredoxin (Trx1), human (natural protein, UniProt P10599-1 1-105, looked up)
chain: MVKQIESKTAFQEALDAAGDKLVVVDFSATWCGPCKMIKPFFHSLSEKYSNVIFLEVDVDDCQDVASECEVKCMPTFQFFKKGQKVGEFSGANKEKLEATINELV
notes: also called TXN; not shown: His6, N-terminal, cleaved; GFP, N-terminal, cleaved; SUMO, N-terminal, cleaved
B2: Thioredoxin-like protein 1 (TXNL1), human, wildtype (natural protein, UniProt O43396 1-289, looked up)
chain: MVGVKPVGSDPDFQPELSGAGSRLAVVKFTMRGCGPCLRIAPAFSSMSNKYPQAVFLEVDVHQCQGTAATNNISATPTFLFFRNKVRIDQYQGADAVGLEEKIKQHLENDPGSNEDTDIPKGYMDLMPFINKAGCECLNESDEHGFDNCLRKDTTFLESDCDEQLLITVAFNQPVKLYSMKFQGPDNGQGPKYVKIFINLPRSMDFEEAERSEPTQALELTEDDIKEDGIVPLRYVKFQNVNSVTIFVQSNQGEEETTRISYFTFIGTPVQATNMNDFKRVVGKKGESH
notes: human TXNL1, open reading frame synthesised codon-optimised for E. coli; N-terminal Trx-fold domain (active site CGPC) and C-terminal PITH domain; also called TRP32; thioredoxin related protein of 32 kDa; not shown: His6, N-terminal, cleaved; GFP, N-terminal, cleaved; SUMO, N-terminal, cleaved

Target: the molecule itself
Test: non-reducing SDS-PAGE with Western blot; pure control proteins and chromatography fractions separated on SDS-PAGE without or with DTT, blotted with anti-TXNL1 or anti-Trx1

| Protein | binding result |
| --- | --- |
| B1 | binds |
| B2 | binds |
